We go through one substance from patent publication US20090075929.

Data set [1] has as its system GST-wtMADD (bacterially expressed, purified).

Turning to “recombinant Akt (rAkt; protein kinase B)”, the “in vitro phosphorylation (32P autoradiography)” value with GST-MADD173A (T173A) is “The phosphorylation levels of MADD mutants including MADD70A, MADD173A and MADD1041A were reduced or absent”; in the data set with GST-MADD70A (S70A) it was “The phosphorylation levels of MADD mutants including MADD70A, MADD173A and MADD1041A were reduced or absent”; in data set [1] it was “recombinant wild-type MADD (wtMADD) was phosphorylated by Akt”; in the data set with GST-MADD1041A (T1041A), “The phosphorylation levels of MADD mutants including MADD70A, MADD173A and MADD1041A were reduced or absent”.
